Results as given in PMC9972567.

Biological target: Ep300 (UniProt B2RWS6)
Test: anti-V5 IP, Ep300 immunoblot
Settings: reference: wild type; sites S656

In the case of “PIMT/TGS1 (human PIMT-V5) (from UniProt Q96RS0) S656A”, the “binding against the reference” value is reported as “weaker”.
